{"source": "paper PMC2174347", "about": "(The Journal of Cell Biology, 2000)", "binders": {"B1": {"name": "ezrin 1-333 K63N, K64N, K253N, K254N, K262N, and K263N (domain or fragment, UniProt P15311 1-333, looked up)", "chain": "MPKPINVRVTTMDAELEFAIQPNTTGKQLFDQVVKTIGLREVWYFGLHYVDNKGFPTWLKLDNNVSAQEVRKENPLQFKFRAKFYPEDVAEELIQDITQKLFFLQVKEGILSDEIYCPPETAVLLGSYAVQAKFGDYNKEVHKSGYLSSERLIPQRVMDQHKLTRDQWEDRIQVWHAEHRGMLKDNAMLEYLKIAQDLEMYGINYFEIKNKKGTDLWLGVDALGLNIYEKDDKLTPKIGFPWSEIRNISFNDNNFVIKPIDNNAPDFVFYAPRLRINKRILQLCMGNHELYMRRRKPDTIEVQQMKAQAREEKHQKQLERQQLETEKKRRETV"}}, "target": "wild-type ezrin 1-586 (UniProt P15311 1-586)", "test": "solid phase assay"}
{"binder": "B1", "values": [{"measurement": "binding result", "value": "binds"}]}
